Reference: patent publication US20230025129A1 (KYMAB, published 2023)

T1: human matriptase-2 ECD protein his tag (human, UniProt Q8IU80 78-811)
T1 sequence: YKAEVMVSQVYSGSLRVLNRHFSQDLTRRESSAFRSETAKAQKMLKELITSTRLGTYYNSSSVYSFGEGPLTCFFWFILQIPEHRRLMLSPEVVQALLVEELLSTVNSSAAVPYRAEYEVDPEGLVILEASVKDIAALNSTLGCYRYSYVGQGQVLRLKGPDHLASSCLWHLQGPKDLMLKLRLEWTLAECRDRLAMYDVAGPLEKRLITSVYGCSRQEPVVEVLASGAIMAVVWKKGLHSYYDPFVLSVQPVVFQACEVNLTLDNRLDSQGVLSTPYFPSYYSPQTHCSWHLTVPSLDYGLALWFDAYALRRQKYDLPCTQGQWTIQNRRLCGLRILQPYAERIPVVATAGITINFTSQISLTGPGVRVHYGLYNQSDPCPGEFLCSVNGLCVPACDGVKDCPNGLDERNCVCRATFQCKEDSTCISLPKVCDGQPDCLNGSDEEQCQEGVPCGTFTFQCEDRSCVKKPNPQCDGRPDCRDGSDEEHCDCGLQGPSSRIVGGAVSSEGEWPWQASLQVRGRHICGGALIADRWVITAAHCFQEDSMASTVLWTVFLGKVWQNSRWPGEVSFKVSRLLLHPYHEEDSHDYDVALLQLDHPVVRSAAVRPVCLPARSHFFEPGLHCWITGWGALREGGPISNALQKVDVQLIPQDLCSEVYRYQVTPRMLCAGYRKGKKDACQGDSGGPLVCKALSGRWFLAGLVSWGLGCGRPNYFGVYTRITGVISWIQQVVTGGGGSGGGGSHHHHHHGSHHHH

T2: mouse matriptase-2 ECD protein his tag (mouse, UniProt Q9DBI0 80-811)
T2 sequence: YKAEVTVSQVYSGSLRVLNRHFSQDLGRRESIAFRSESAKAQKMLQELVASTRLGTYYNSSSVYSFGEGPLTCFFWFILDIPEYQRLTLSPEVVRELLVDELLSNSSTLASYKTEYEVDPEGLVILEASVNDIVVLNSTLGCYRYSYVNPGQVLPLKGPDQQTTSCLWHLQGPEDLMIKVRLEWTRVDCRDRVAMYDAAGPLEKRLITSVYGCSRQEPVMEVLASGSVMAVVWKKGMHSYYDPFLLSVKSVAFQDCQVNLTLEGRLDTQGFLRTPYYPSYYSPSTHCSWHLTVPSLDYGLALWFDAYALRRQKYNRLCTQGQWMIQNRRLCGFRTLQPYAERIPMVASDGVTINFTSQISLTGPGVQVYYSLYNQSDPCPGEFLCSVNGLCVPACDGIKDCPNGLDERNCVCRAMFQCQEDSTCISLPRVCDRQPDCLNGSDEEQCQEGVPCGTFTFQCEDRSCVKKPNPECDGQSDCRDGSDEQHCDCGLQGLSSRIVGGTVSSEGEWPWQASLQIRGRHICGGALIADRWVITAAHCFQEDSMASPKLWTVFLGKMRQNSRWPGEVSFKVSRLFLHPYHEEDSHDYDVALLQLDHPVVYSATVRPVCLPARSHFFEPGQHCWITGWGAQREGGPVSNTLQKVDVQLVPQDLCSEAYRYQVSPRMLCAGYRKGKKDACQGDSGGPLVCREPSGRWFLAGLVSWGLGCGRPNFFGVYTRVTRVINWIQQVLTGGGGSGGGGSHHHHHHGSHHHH

T3: human MTP-2 expressed on HEK293 cells (human, UniProt Q8IU80 1-811)
T3 sequence: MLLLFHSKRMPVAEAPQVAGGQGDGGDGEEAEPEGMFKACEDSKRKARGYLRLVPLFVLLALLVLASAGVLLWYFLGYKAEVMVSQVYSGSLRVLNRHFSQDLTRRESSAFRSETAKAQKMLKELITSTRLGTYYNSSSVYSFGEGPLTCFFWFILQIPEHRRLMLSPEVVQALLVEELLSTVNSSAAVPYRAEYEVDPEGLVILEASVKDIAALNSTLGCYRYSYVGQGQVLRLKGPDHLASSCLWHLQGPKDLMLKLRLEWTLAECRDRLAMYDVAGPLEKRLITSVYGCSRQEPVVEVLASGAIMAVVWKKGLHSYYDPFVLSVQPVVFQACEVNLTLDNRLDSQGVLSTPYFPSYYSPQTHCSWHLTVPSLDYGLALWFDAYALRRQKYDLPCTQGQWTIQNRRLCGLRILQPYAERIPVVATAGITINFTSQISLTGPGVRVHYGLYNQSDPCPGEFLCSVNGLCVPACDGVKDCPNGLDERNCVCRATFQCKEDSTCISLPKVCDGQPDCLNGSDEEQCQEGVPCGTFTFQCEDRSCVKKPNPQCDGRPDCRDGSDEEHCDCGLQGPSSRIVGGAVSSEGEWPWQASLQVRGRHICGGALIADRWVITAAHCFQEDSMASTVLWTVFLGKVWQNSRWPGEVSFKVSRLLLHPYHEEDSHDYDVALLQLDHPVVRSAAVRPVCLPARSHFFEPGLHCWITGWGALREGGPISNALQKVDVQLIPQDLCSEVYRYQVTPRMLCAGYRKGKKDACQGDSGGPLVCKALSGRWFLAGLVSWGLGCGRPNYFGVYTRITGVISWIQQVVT

T4: human matriptase-2 mask ECD protein his tag (human, UniProt Q8IU80 78-576)
T4 construct: MTP-2 ECD without the serine protease domain, with C-terminal linker and His tag; also called headless huMTP-2 ECD 78-576 aa; headless human MTP-2 ECD
T4 sequence: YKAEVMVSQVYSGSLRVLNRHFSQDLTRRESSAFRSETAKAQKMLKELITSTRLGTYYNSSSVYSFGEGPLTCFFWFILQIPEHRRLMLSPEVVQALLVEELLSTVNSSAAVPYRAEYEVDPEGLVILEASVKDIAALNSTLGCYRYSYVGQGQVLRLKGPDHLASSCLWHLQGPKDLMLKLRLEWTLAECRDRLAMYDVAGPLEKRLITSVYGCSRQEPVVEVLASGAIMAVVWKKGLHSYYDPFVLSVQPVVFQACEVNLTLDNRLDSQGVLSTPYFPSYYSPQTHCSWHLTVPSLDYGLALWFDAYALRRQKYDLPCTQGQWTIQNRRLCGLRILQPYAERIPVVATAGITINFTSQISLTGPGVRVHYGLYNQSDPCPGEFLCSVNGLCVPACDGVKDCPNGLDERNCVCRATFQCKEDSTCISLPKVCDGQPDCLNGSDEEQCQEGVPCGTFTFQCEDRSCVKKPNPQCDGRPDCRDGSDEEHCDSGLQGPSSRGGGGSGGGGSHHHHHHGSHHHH


Assays:
[1] = target: T1, human matriptase-2 ECD protein his tag; test: cell-based or functional assay
[2] = target: T2, mouse matriptase-2 ECD protein his tag; test: cell-based or functional assay
[3] = target: T3, human MTP-2 expressed on HEK293 cells; test: cell-based or functional assay
[4] = target: T1, human matriptase-2 ECD protein his tag; test: SPR (Biacore 8K), huIgG4PE captured on anti-human Fc, MTP-2 ECD as analyte, 1:1 fit
Protocol: (§1) Off-rate screening was performed by surface plasmon resonance (SPR), using a Biacore 8K system (GE Healthcare). Anti-human Fc mix (˜1000 RU) were immobilised in both active and reference channels in HBS-P+ buffer (GE BR100671) pH 7.4. Anti-MTP-2 hulgG4PE antibodies were then captured for 60 sec at 10 μl/min at 1 μg/ml concentration (approximatively 35 and 50 RU were captured) only on the active channel. MTP-2 ECD protein analytes were then injected (at 100, 25, 6.25, 1.56 and 0 nM concentrations) for 120 sec (association time) at 30 μl/min and dissociation monitored for 600 sec. Multiple cycle kinetics mode was used with all 8 channels being used. Reference and background were subtracted from the sensorgrams for each antibody and data was fitted using a 1:1 interaction model in the Biacore evaluation software. Rmax, ka, kd globally fitted, RI=0.

[5] = target: T2, mouse matriptase-2 ECD protein his tag; test: as above
Protocol: as §1

[6] = target: T4, human matriptase-2 mask ECD protein his …; test: SPR, antibody captured, headless ECD as analyte
Protocol: as §1
Binding was also assessed using the above SPR method with “headless” huMTP-2 ECD 78-576 aa instead of the full ECD. Headless ECD corresponds to the MTP-2 ECD without the serine protease domain.

Binder | Inhibition enzymatic activity human MTP2 protein (IC50) [1] | Inhibition enzymatic activity mouse MTP2 protein (IC50) [2] | Inhibition enzymatic activity human MTP2 on cells (IC50) [3] | Binding Late top conc [4] | Kd [4] | Stoichiometry [4] | koff [4] | kon [4] | Binding Late top conc [5] | Kd [5] | Stoichiometry [5] | koff [5] | kon [5] | binding result [6]
NORI-009 (antibody, human IgG4 S228P, lambda, V domains shown, human IgG4PE, lambda) VH: EVQLVESGGGLVQPGRSLRLSCAASGFTFNDHVIYWVRQVPGKGLEWVSTISWNSDTIAYADSVKGRFTISRDNAKNALYLQMNSLRTEDTALYYCAREKDGDFYYDYFAMDVWGQGTTVTVSS VL: QSALTQPPSASGSPGQSVTLSCTGTSSDVGYYNYVSWYLQHPGKAPKLMIYEVSKRPSGVPDRFSGSKSANTASLTVSGLQAEDEADYYCSSYAGSNKVVFGGGTKVTVLG | 55.5 nM | 17.6 nM | 5.68 nM | 8.6 | 15 nM | 0.48 | 0.00112 s⁻¹ | 74800 M⁻¹ s⁻¹ | 5 | 19.6 nM | 0.47 | 0.000693 s⁻¹ | 35400 M⁻¹ s⁻¹ | no binding (tested: analyte up to 100 nM)
NORI-033 (antibody, human IgG4 S228P, lambda, V domains shown) VH: QLQLQESGPGLVKPSETLSLTCTVSGDSISSHTYWWGWIRQPPGKGLEWIGSMFYSGSTYYNPSLKSRVVISVDTSRNQFSLKVRSVTAADTAVFYCARHNNWGMENYFDDWGQGTLVTVSS VL: SYALTQPPSVSVSPGQTARITCSADALPDQYGYWYQQKPGQAPVLVIYKDSERPSGIPERFSGSSSGTTVTLTISGVQAEDEADYYCQSADSSGSYVVFGGGTKLTVLG | 2.84 nM | 1.73 nM | 0.206 nM | – | – | – | – | – | – | – | – | – | – | –
NORI-010 (antibody, human IgG4 S228P, lambda, human IgG4PE, lambda) heavy: not shown light: QSALTQPPSASGSPGQSVTISCTGTSSDVGFYNFVSWYQQHPDKAPKVMIYEVSKRPSGVPDRFSGSKSGNTASLTVSGLQAEDEADYYCSSYAGSNKVVFGGGTKLTVLGQPKAAPSVTLFPPSSEELQANKATLVCLISDFYPGAVTVAWKADSSPVKAGVETTTPSKQSNNKYAASSYLSLTPEQWKSHRSYSCQVTHEGSTVEKTVAPTECS | 17.7 nM | 9.76 nM | 3.51 nM | 7.9 | 10.5 nM | 0.63 | 0.000442 s⁻¹ | 42300 M⁻¹ s⁻¹ | 4.5 | 24.4 nM | – | 0.000324 s⁻¹ | 13300 M⁻¹ s⁻¹ | no binding (tested: analyte up to 100 nM)
NORI-012 (antibody, human IgG4 S228P, lambda, V domains shown, human IgG4PE, lambda) VH: EVQLVESGGGLVQPGRSLRLSCAASGFTFDDHVMYWVRQAPGKGLEWVSGISWNSDTIGYADAVKGRFTISRDNAKNVLYLHMNSLRPEDTALYYCAREKDGDFYYNYFVMDVWGQGTTVTVSP VL: QSALTQPPSASGSPGQSVTISCTGTSSDVGFYNFVSWYQQHPDKAPKVMIYEVSKRPSGVPDRFSGSKSGNTASLTVSGLQAEDEADYYCSSYAGSNKVVFGGGTKLTVLG | 21.2 nM | 11.5 nM | 4.26 nM | 8.5 | 9.13 nM | 0.6 | 0.000427 s⁻¹ | 46700 M⁻¹ s⁻¹ | 4.6 | 29 nM | 1.08 | 0.000337 s⁻¹ | 11600 M⁻¹ s⁻¹ | no binding (tested: analyte up to 100 nM)
